Test: yeast display, Sf9 membrane polyspecificity reagent, FACS + sequencing; frameworks hold sequencing errors
Method in brief: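 A synthetic nanobody library was expressed on Saccharomyces cerevisiae BJ5465 by galactose induction for 36–48 hours. The library was stained for 1 hour at 4 °C with 10% biotinylated, detergent-solubilized Sf9 membrane reagent and enriched with streptavidin microbeads before FACS. Low and high (top ~1%) gates were set on anti-HA fluorescence for expression and streptavidin fluorescence for reagent binding, and each polyreactivity label reflects the gate of origin.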

| Sequence | polyreactivity (PSR sort gate) |
| --- | --- |
| QVQLVESGGGLVQAGGSLRLSCAASGNTFGNYGKGWYRQAPGKEREFVAAITSRGTSTYYADSVKGRFTISRDNAKNTVYLQMNSLKPEDTAVYYCNARPRYKYPRYDYWGQGTQVTVSS | high polyreactivity |
| QVQLVESGGGLVQAGGSLRLSCAASGNTFGRYAMGWYRQAPGKERELVAAITKRGGTTYYADSVKGRFTISRDNAKNTVYLKMNSLKPEDTAVYYCAAKRSVLRTADYDYWGQGTQVTVSS | high polyreactivity |
| QVQLVESGGGLVQAGGSLRLSCAASGNTFGTYVMGWYRPAPGKERELVAAISQSGGSTDYADSVKGRFTISRDNAKYTVYLQMNSLKPEETAVYYCAKVTWGTVWYRSPSEYDYWGQGTQVTVSS | low polyreactivity |
| QVQLVESGGGLVQAGGSLRLSCAASGNTFHPYAMGWYRQAPGKVRELVAAITKSGGSTYYADSVKGRFTISRDNAKNTVYLQMNSLKPEDTAVYYCATDGYEYTDYGSSGYDYWGQGTQVTVSS | low polyreactivity |
| QVQLVESGGGLVQAGGSLRLSCAASGNTFHSNAMGWYRQAPGKERELVAAITPSDGDTYYADSVKGRFTISRDNAKNTVYLQMNSLKPEDTSVYYCAAEDDPGEYEYWGQGTQVTVSS | low polyreactivity |
| QVQLVESGGGLVQAGGSLRLSCAASGNTFKGYAMGWYRQAPGKERELVAAISWSGSSTYYADSVKGRFTISRDNAKNTVYVQMISLKPEDTAVYYCNRKYLGRYASVYGYGYWGQGTQVTVSS | high polyreactivity |
| QVQLVESGGGLVQAGGSLRLSCAASGNTFLRNTMGWYRQAPGKERELVAAISWGGGTTYYADSVKGRFTISRDNAKNTVYLQINSLKPEDSAVYYCNARYYSRRGNSWGQGTQVTVSS | high polyreactivity |
| QVQLVESGGGLVQAGGSLRLSCAASGNTFLRYAMGWYRQAPGKERELVAAISTSGDSTYYADSVKGRFTISRDNAKNTVYLQMNSLKPEDTAVYYCAAAWYIHTIAYGCWGQGTQVTVSS | high polyreactivity |
| QVQLVESGGGLVQAGGSLRLSCAASGNTFLYYGMGWYRQAPGKERELVAAITSGGITYYADSVKGRFTISRDNAKNTVYLQMNSLKPEETAVYFCNKDVGFTRPLYYWGQGTQVTVSS | low polyreactivity |
| QVQLVESGGGLVQAGGSLRLSCAASGNTFNRYAMGWYRQAPGKESELVATISYRGGSTSYADSVKGRFTISRDNAKNTVYLQMNSLKPEDTAVYYCATEEGYVLYKYYSWGQGTQVTVSS | low polyreactivity |
| QVQLVESGGGLVQAGGSLRLSCAASGNTFNYYTMGWYRQEPGKERELVAAIRSGGRTYYADSVKGRFTISRDNAKNTVYLLMNSLIPEDTAVYDCAAVAVTYRYDYWGQGTQVTVSS | high polyreactivity |
| QVQLVESGGGLVQAGGSLRLSCAASGNTFPGYAMGWYRQAPGKEREFVATITSNDGTTYYADSVKGRFTISRDNAKNTVYLQLNSLKPEDTAVYYCAKRLSDSWPPNWGYNYWGQGTQVTVSS | low polyreactivity |
| QVQLVESGGGLVQAGGSLRLSCAASGNTFPINAMGWYRQAPGKERELVATITRPGGSTYYADSVKARFTISRDNAKNTVYLQMNSLKPEDTAVYYCAAANYTYASRWYDYWGQGTQVTVSS | low polyreactivity |
| QVQLVESGGGLVQAGGSLRLSCAASGNTFPIYAMGWSRQAPGKERELVAAIRSSTGSTYYADSVKGRFTISRDYAKNTVYLQMNSLKPEATAVYYCAAAGVTSVVYGTRYYYWGQGTQVTVSS | high polyreactivity |
| QVQLVESGGGLVQAGGSLRLSCAASGNTFRSYVMGWYRQAPGKERELVADISSGDGTNYADSVKGRFTISRDNAKNTVYLQMNSLKPEDTAVYYCAAEWSEESDYWGQGTQVTVSS | low polyreactivity |
| QVQLVESGGGLVQAGGSLRLSCAASGNTFRWYAMGWYRQAPGKEREFVADITVRGGSTYYADSVKGRFTISRDNAKNTVYLQMNSLKPEDTAVYYCAVDFRRYPGFDYWGQGTQVTVSS | low polyreactivity |
| QVQLVESGGGLVQAGGSLRLSCAASGNTFRWYAMGWYRQAPGKERELVATISRRGGITYYADSVKGRFTISRDNAKNTVYFQMNSLKPEDTAVYYCAAYSGSGLGAYDYWGQGTQVTVSS | high polyreactivity |
| QVQLVESGGGLVQAGGSLRLSCAASGNTFRYYAMGWYRQAPGKERDLVAAISESGGRTYYADSVKGRFTISRDNAKKTVYLQMNSLKPEDTAFYYCAASRWARTWWYGYNYWGQGTQVTVSS | high polyreactivity |
| QVQLVESGGGLVQAGGSLRLSCAASGNTFSVYAMGWYRQAPGKERELVAGITTSGGSTYYADSVKGRFTISRDNAKNTVYLQMNSLKPEDTAVYYCATDISTSYYYQYSSFYQYDSWGQGTQVTVSS | low polyreactivity |
| QVQLVESGGGLVQAGGSLRLSCAASGNTFTRNAMGWYRQAPGKERELVAAITGRGGTYYADSVKGRFTISRDNAKNTVYLQMNSLKPEDTAVYYCNAVYRSSYQKGSMDYWGQGTQVTVSS | high polyreactivity |
| QVQLVESGGGLVQAGGSLRLSCAASGNTFTWYTIGWYRQAPGKERELVAVITSDGSKYYADSVKGRFTISRDNAKNTFYLQMNSLKPEVTAVYYCTVGGGTNYGYGYWYGFYYWGQGTQVTVYS | low polyreactivity |
| QVQLVESGGGLVQAGGSLRLSCAASGNTFTWYTIGWYRQAPGKERELVAVSTSDGSTYYADSVKGRFTISRDNAKHTVYLQMNSLKPEDTAVYYCTAGGGTNYGSGYWYGYYYWGQGTQVTVSS | low polyreactivity |

| Sequence | polyreactivity (PSR sort gate) |
| --- | --- |
| QVQLVESGGGLVQAGGSLRLSCAASGNTFVGNAMGWYRQAPGKERELVAVITWSGGSTYYADSVKGRFTISRDNAKNTVYLQMNSLKPEDTAVYYCAARKFGTSVTHRGYWGQGTQVTVSS | low polyreactivity |
| QVQLVESGGGLVQAGGSLRLSCAASGNTFVYKDMGWYRQAPGKERELVADIRYSGSTYYADSVKGRFTISRDNAKNTVYLQMNSLKPEDTAVYYCAKAYYVLSWMGYWGQGTQVTVSS | low polyreactivity |
| QVQLVESGGGLVQAGGSLRLSCAASGNTFVYNDMGWYRQAPGKERELVADIRYSGSTYYADSVKGRFTISRDNAMNSVYLQMNSLKPEDTAVYYCAKAYYVLSWMGYWGQGTQVTVSS | low polyreactivity |
| QVQLVESGGGLVQAGGSLRLSCAASGNTFWPYAMGWYRQAPGKERELVAAISWRGSRTYYADSVKGRFTISRDNAKNTVYLQMNSLKPEDTAVYYCAADYKYVGSEYGYWGQGTQVNVSS | low polyreactivity |
| QVQLVESGGGLVQAGGSLRLSCAASGNTFWRYTMGWYRQAPGKERELVAAISSSGGSTYYADSVKGRFTISRDNAKNTVYLQMNSLKPEDTAVYYCAADSGSSRSRRGYEYWGQGTQVTVSS | high polyreactivity |
| QVQLVESGGGLVQAGGSLRLSCAASGNTFWSYAMGWYRQAPGKERELVAAITQRGGSTYYADSVKGRFTISRDNAKNNVDLQMNSLKPEDTAVYYCAADTYYKGDYWGQGTQVTVSS | high polyreactivity |
| QVQLVESGGGLVQAGGSLRLSCAASGNTFYANTMGWYRQAPGKERELVAAITVRGASTNYADSVKGSFTISRDNAKNTVYLQMNSLKPEDTAVYYCNAVGLRSPWHQDYLIRYDYRGQGTQVTVSS | low polyreactivity |
| QVQLVESGGGLVQAGGSLRLSCAASGNTFYFNAMGWYRQAPGKERELVAAITSGGNTNYADSVKGRFTISRDHAKNTFNLQMNSLKPEDSAVYYCNVPRFSPIRNYDYWGQGTQVTVSS | high polyreactivity |
| QVQLVESGGGLVQAGGSLRLSCAASGNTFYFYAMGWYRQAPGKERELVAAIRWSGSRTYADSVKGRFTISRDNAKNTVYLQMNSLKPEDTAVYYCNADSIWGYDYWGQGTQVTVSS | high polyreactivity |
| QVQLVESGGGLVQAGGSLRLSCAASGNTFYFYAMGWYRQAPGKERELVASITRRGGSTYYADSVKGRFTISRDNAKNTVYLQMNSLKPEDTAVYYCARYPARYGGYYDYDYWGQGTQVTVSS | high polyreactivity |
| QVQLVESGGGLVQAGGSLRLSCAASGNTFYGYTMGWYRQAPGKERELVAAISSRGGSTYYADSVKGRFTISRDNAKNTVYLQMISLKPEDTAVYYCAAVRPVKKFPYCYWGQGTQVTVSS | high polyreactivity |
| QVQLVESGGGLVQAGGSLRLSCAASGNTFYLYAMGWYRQAPGKERELVASITGGTRTNYADSVKGRFTISRDNAKNTVYLQMNSLKPEDTAVYYCAKTYPRTVGKYLSRGGYYYWGQGTQVTVSS | high polyreactivity |
| QVQLVESGGGLVQAGGSLRLSCAASGNTFYQYAMGWYRQAPGKERELVAAIDWSGGSTYADSVKGRFTISRDNAKNTVYLQINSLKPEDTAVYYCNASVKPSNVWSRGYDYWGQGTQVTVSS | low polyreactivity |
| QVQLVESGGGLVQAGGSLRLSCAASGNTFYRNAMGWYRQAPGKERELVAAISTTGVSTYYADSVKGRFTISRDNAKNTVYVQMTSLKPEDTAVYYCAAEIIGYHTIYDYWGQGTQVTVSS | low polyreactivity |
| QVQLVESGGGLVQAGGSLRLSCAASGNTFYSYAMGWYRPAPGKERELVAAITWGGRTKYADSVKGRFTISRDNAKNTVYLQMNSLKPEDTAVYYCAARLYHGKTKYDYWGQGTQVTVSS | high polyreactivity |
| QVQLVESGGGLVQAGGSLRLSCAASGNTFYVNVMGWYRQAPGKEREFVAAISTRGVSTSYADSVKGRFTISRDNAKNTVYLQMNSLKPEDTAVYYCAASFRRPQPKGTTYGYWGQGTQVTVSS | high polyreactivity |
| QVQLVESGGGLVQAGGSLRLSCAASGNTFYWNAMGWYRRAPGKERELVAAISTTGVSTYYADSVKGRFTISRDKAKNTVYLQMNSLKPEDTAVYFCAAEIIGYHTIYDYWGQGTQVTVSS | low polyreactivity |
| QVQLVESGGGLVQAGGSLRLSCAASGNTINVNTMGWYRQAPGKERELVAAISKRGGSTYYADSVKGRFTISRDNAKNTVYLQMNSLKPEDTAVYYCAKQVSLPRYHYGSAPYGYWGQGTQVTVSS | high polyreactivity |
| QVQLVESGGGLVQAGGSLRLSCAASGNTLAKYAMGWYRQAPGKERELVAAISWSGGRTFYADSVKGRFTISRDNAKNTVYLQMNSLKPEDSAVYYCNKVKGQSFSSYGYWGQGTQVTVSS | high polyreactivity |
| QVQLVESGGGLVQAGGSLRLSCAASGNTLAYYDMGWYRQAPGKESELVAAITSGGTTNYADSVKGRFTISRDNAKNTVYLQMNSLKPEDTAVYYSAALGIGSSRRFSGYVYWGQGTQVTVSS | low polyreactivity |
| QVQLVESGGGLVQAGGSLRLSCAASGNTLDAYTMGWYRQAPGKERELVAAISRGGTRTYYADSVKGRFTISRDNAKNTVYLQMNSLKPEDTAVYYCNKVRDYSYDSWGQCTQVTVSS | high polyreactivity |

Source: the nanobody polyreactivity screen of Harvey et al. (2022)
